B1: Pyrococcus furiosus Pcc1 (pfuPcc1), full-length (natural protein)
chain: MKAKRVQAKIEIEFPSEDVAKVVYEAVLYEHLSVPYRRSEIDFKLEGKKIILDIKATDSSALRGTVNSYLRWIKAAIDVIEV
B2: Methanococcus jannaschii Kae1 (mjKae1), amino acids 1-328 (domain or fragment)
chain: MICLGLEGTAEKTGVGIVTSDGEVLFNKTIMYKPPKQGINPREAADHHAETFPKLIKEAFEVVDKNEIDLIAFSQGPGLGPSLRVTATVARTLSLTLKKPIIGVNHCIAHIEIGKLTTEAEDPLTLYVSGGNTQVIAYVSKKYRVFGETLDIAVGNCLDQFARYVNLPHPGGPYIEELARKGKKLVDLPYTVKGMDIAFSGLLTAAMRAYDAGERLEDICYSLQEYAFSMLTEITERALAHTNKGEVMLVGGVAANNRLREMLKAMCEGQNVDFYVPPKEFCGDNGAMIAWLGLLMHKNGRWMSLDETKIIPNYRTDMVEVNWIKEIK

Assays:
[1] = target: B2; experiment: SEC-MALS
[2] = target: B1; experiment: SEC-MALS
[3] = target: B1; experiment: AUC
[4] = target: B1; experiment: SEC-MALS; remark: listed apart in the source

| Binder | binding result [1] | stoichiometry N [2] | stoichiometry N [3] | stoichiometry N [4] |
| --- | --- | --- | --- | --- |
| B1 | binds | – | – | – |
| B2 | – | 1 Kae1 per Pcc1 (2:2) | ~1 Kae1 per Pcc1 (2:2) | 0.5 Kae1 per Pcc1 (1:2) |
| Pyrococcus furiosus Kae1 (pfuKae1) (natural protein) MIALGIEGTAHTLGIGIVTENKVLANVFDTLKTEKGGIHPKEAAEHHAKLLKPLLRKALEEAGVSMEDIDVIAFSQGPGLGPALRVVATAARALAIKYNKPIVGVNHCIAHVEITKMFGVKDPVGLYVSGGNTQVLALEGGRYRVFGETLDIGIGNALDVFARELGLGFPGGPKIEKLALKGEKYIELPYAVKGMDLSFSGLLTEAIRKYKSGKYRVEDLAYSFQETAFAALVEVTERALAHTEKEEVVLVGGVAANNRLREMLRIMAEDRGVKFFVPPYDLCRDNGAMIAYTGLRMYKAGIKFKLEETIVKQKFRTDEVEVVW | – | 1 Kae1 per Pcc1 (2:2) | – | – |
